Data as given in US8962263B2, “Methods and compositions for detecting the activation state of multiple proteins in single cells” (The Board of Trustees of the Leland Stanford Junior …, priority 2001, dated 2015).
Where two headings read alike, the source gives them in different places.

Columns and labels:
Pyk2 = assay: sICAM-2 induced Pyk2 phosphorylation (phospho-tyrosine based ELISA, chemical genetic approach); assay type: cell-based; conditions: phospho-tyrosine based ELISA
Procedure, shortened: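 Chemical genetic approach: sICAM-2-stimulated cells treated with selected kinase/pathway inhibitors (PKC inhibitors BIM I, BIM II, staurosporine; tyrphostin A9; neomycin; piceatannol); phosphorylation status of Pyk2 and Syk measured by phospho-tyrosine ELISA.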

p44/42 MAPK [1] = assay: intracellular phospho-p44/42 MAPK by flow cytometry in ICAM-2 treated Jurkat cells; assay type: cell-based, human; conditions: chemical agents 10 μM, EDTA 1 mM; mAbs titrated prior to ICAM-2
Description: A) Mean fluorescent intensity values (MFI) of ICAM-2-FITC (adhesion) and mAb24-Alexa633, (LFA-1, activation) in treated Jurkat cells (as above). Control unstimulated and/or compound pretreated values were subtracted. B) Top panel: Intracellular phospho-p44/42, MAPK detection as a function of ICAM-2, dose in Jurkat cells by flow cytometry (see Material and Methods). Mean fluorescent intensity values (MFI) were plotted±standard deviation (SD). Bottom panel: ICAM-2, treated Jurkat cells were stained for intracellular phospho-p44/42, MAPK as described above. mAbs to β2, and αL, integrins (10, μg/ml, 10, minutes) were titrated prior to ICAM-2, treatment as indicated and plotted for MFI±SD. C) ICAM-2, induced p44/42, MAPK activity is blocked by β2, and αL, integrin antibodies as determined by a p44/42 MAPK kinase assay. Conditions for induction and inhibition are as described above. Recombinant active p44/42, MAPK served as an internal positive control (denoted by “+”). D) Inhibition and activation profile for intracellular phospho-p44/42, by flow cytometry in the presences of chemical agents (10, μM), EDTA (1, mM), or PMA, ionomycin and ICAM-2, stimulus (as indicated above). MFI values±SD are plotted.
Intracellular and extracellular staining was performed as described (Perez and Nolan, 2002). Intracellular probes for active kinases were made by conjugating phospho-specific antibodies to the ALEXA FLUOR® dye series as described and used in phospho-protein optimized conditions (Perez and Nolan, 2002). Kinetic analyses was performed by direct application of fixation buffer in time synchronized 96-wells maintained at 37° C. Intracellular actin and microtubule staining was performed using phalloidin-Alexa633 and taxol-Alexa546 dyes (Molecular Probes). Adhesion and clustering assays were performed using ICAM-2-FITC as described in text. LFA-1 activation was assessed by either mAb24-Alexa633 or mAb24-Alexa546 conjugate, surface stained at 37° C. Flow cytometry data are representative of 3 independent experiments of 10^6 cells/sample. 10-50,000 events were collected and manually calibrated on a FACSCalibur™ machine. Data plotted in bar graph format is expressed as geometric mean fluorescence intensity (MFI) and normalized for isotype controls. Log ratios are defined as the MFI of stimulus to the MFI of unstimulated cells. Data was analyzed using Flowjo™ software (Treestar).

p44/42 MAPK [2] = assay: phospho-p44/42 MAPK immunoblot and p44/42 MAPK kinase assay in soluble ICAM-2 treated Jurkat cells; assay type: cell-based, human
HL60 cells = assay: FACS based effector-target killing assay, human PBMC against CFSE labeled HL60 cells; assay type: cell-based; conditions: 10 μg/ml, 50:1 E:T ratio, 4 hrs
Procedure: A) PBMC were either treated with ICAM-2, (10 μg/ml) in the presence of IL-2, for 12, hr and then incubated with CFSE labeled target HL60, cells at a 50:1, E:T ratio for 4, hrs. Remaining HL60, cells were quantified by flow cytometry. B) PBMC were treated with IL-2, (100, U/ml, 12, hrs) and treated with ICAM-1,-2, or 3, FC proteins (10, μg/ml) and used in a cytotoxicity assay as described above. Results are representative of 4, independent experiments.
Target cell lysis was measured by flow cytoemtric based detection of CFSE labeled HL60 cells. HL60 cells were labeled with 1 μg of CFSE (30 min, 37° C.). Targets were washed twice and mock treated, IL-2 activated (100 U/ml), CD3/CD28 activated (1 μg/ml), or treated with ICAM2 beads or soluble ICAM-1, -2, or 3 (10 μg/ml, 30 min, 37° C.) before plating at 10^4 target cells/well of a 96-well round bottom plate. CTLs were added at 50:1, 25:1, and 12.5:1 E:T ratio, and incubated at 37° C. for 4 hrs. Cells were then processed for multiparameter flow cytometry and intracellular perforin stain. Percent specific lysis was calculated by the following equation: % specific lysis=100-100×(experimental HL60 count/total control HL60 count). HL60 counts were detectable by the CFSE fluorescence. Percent perforin was calculated by the following equation: % perforin=100×[(experimental perforin MFI−isotype mAb MFI)/(total perforin MFI−isotype mAb MFI)]. MFI refers to mean fluorescent intensity of flow cytoemtric based intracellular detection. Cell conjugates were determined by flow cytometry as described (Morgan et al., 2001). Chemical inhibition was done at 10 μM of indicated compound (30 min, 37° C.) prior to stimulation as indicated. All experiments were performed in triplicate.

Molecule | sICAM-2 induced Pyk2 phosphorylation (Pyk2) | effect on ICAM-2 induced p44/42 MAPK phosphorylation (p44/42 MAPK [1]) | p44/42 MAPK phosphorylation and activity on ICAM-2 treatment (p44/42 MAPK [2]) | p44/42 MAPK phosphorylation and activity on ICAM-2 treatment (p44/42 MAPK [2]; listed as soluble ICAM-2) | target cell lysis of HL60 cells (HL60 cells)
CN(C)CCCn1cc(C2=C(c3c[nH]c4ccccc34)C(=O)NC2=O)c2ccccc21 [bisindolymaleimide I] | affected | diminished | – | – | –
ICAM-2: biochemically purified soluble human ICAM-2 protein from retrovirally transduced NIH3T3 cells; ICAM-2-FC fusion also used (protein, UniProt P13598 25-223, looked up, extracellular domain, biochemically purified soluble human ICAM-2 protein from retrovirally transduced NIH3T3 cells; ICAM-2-FC fusion also used) extracellular domain: KVFEVHVRPKKLAVEPKGSLEVNCSTTCNQPEVGGLETSLDKILLDEQAQWKHYLVSNISHDTVLQCHFTCSGKQESMNSNVSVYQPPRQVILTLQPTLVAVGKSFTIECRVPTVEPLDSLTLFLFRGNETLHYETFGKAAPAPQEATATFNSTADREDGHRNFSCLAVLDLMSRGGNIFHKHSAPKMLEIYEPVSDSQ | – | – | induced both p44/42 MAPK phosphorylation and activation | induced p44/42, MAPK phosphorylation and activity | could initiate target cell lysis in the presence of IL-2 but not in the absence of IL-2
